{
  "source": "FireProtDB (doi:10.1110/ps.5101)",
  "details": "Pseudomonas aeruginosa (strain ATCC 15692 / DSM 22644 / CIP 104116 / JCM 14847 / LMG 12228 / 1C / PRS 101 / PAO1); pH 7; 10 °C; GdnHCl; Fluorescence; sodium phosphate 50 mM; reversible: yes; whole UniProt chain shown",
  "data": [
    {"protein": "Cytochrome c-551 wild type, P00099 (protein) MKPYALLSLLATGTLLAQGAWAEDPEVLFKNKGCVACHAIDTKMVGPAYKDVAAKFAGQAGAEAELAQRIKNGSQGVWGPIPMPPNAVSDDEAQTLAKWVLSQK", "values": [
      {"measurement": "denaturant m value", "result": 3.3, "unit": "kcal/mol/M"},
      {"measurement": "denaturant midpoint (higher = more stable)", "result": 1.8, "unit": "M"},
      {"measurement": "unfolding free energy", "result": 6.1, "unit": "kcal/mol"}
    ]}
  ]
}
